Data taken from patent publication US8591913B2, “Methods of decreasing adipose tissue” (Toru Miyazaki, priority 2009, dated 2013).

B1: AIM: apoptosis inhibitor of macrophage, secretory protein with three SRCR domains; recombinant mouse and human AIM in Example 2, mouse AIM in Examples 3-16 (protein)
chain: ESPTKVQLVGGAHRCEGRVEVEHNGQWGTVCDDGWDRRDVAVVCRELNCGAVIQTPRGASYQPPASEQRVLIQGVDCNGTEDTLAQCELNYYVFDCSHEEDAGAQCENPDSDLLFIPEDVRLVDGPGHCQGRVEVLHQSQWSTVCKAGWNLQVSKVVCRQLGCGRALLTYGSCNKNTQGKGPIWMGKMSCSGQEANLRSCLLSRLENNCTHGEDTWMECEDPFELKLVGGDTPCSGRLEVLHKGSWGSVCDDNWGEKEDQVVCKQLGCGKSLHPSPKTRKIYGPGAGRIWLDDVNCSGKEQSLEFCRHRLWGYHDCTHKEDVEVICTDFDV
B2: mouse AIM: protein consisting of the amino acid sequence shown in SEQ ID NO: 5; recombinant, purified from HEK293T culture supernatant (protein)
chain: MAPLFNLMLAILSIFVGSCFSESPTKVQLVGGAHRCEGRVEVEHNGQWGTVCDDGWDRRDVAVVCRELNCGAVIQTPRGASYQPPASEQRVLIQGVDCNGTEDTLAQCELNYYVFDCSHEEDAGAQCENPDSDLLFIPEDVRLVDGPGHCQGRVEVLHQSQWSTVCKAGWNLQVSKVVCRQLGCGRALLTYGSCNKNTQGKGPIWMGKMSCSGQEANLRSCLLSRLENNCTHGEDTWMECEDPFELKLVGGDTPCSGRLEVLHKGSWGSVCDDNWGEKEDQVVCKQLGCGKSLHPSPKTRKIYGPGAGRIWLDDVNCSGKEQSLEFCRHRLWGYHDCTHKEDVEVICTDFDV
modifications: mouse
notes: recombinant, purified from HEK293T culture supernatant

Columns and labels:
[1] = system: obese AIM-/- mice; experiment: Intravenous administration of AIM to obese AIM-/- mice; type: in vivo, mouse
Protocol: Obese AIM^−/− mice were produced by giving HFD for 20 weeks or more. Meanwhile, a purified recombinant mouse AIM protein was prepared, and an AIM solution in which the AIM protein had been dissolved at a concentration of 0.2 mg/mL in phosphate buffered saline (PBS, pH 7.4) was prepared as an injection. Then, the AIM injection was administered to the mice from the tail vein twice a week for 4 weeks.
A dosage was 1 μg per 1 g of the body weight of the mouse. The dosage was determined based on the AIM concentration in the culture medium in the above-mentioned in vitro experiments, by considering that the AIM concentration in the blood of the mouse was a similar level to the AIM concentration in the culture medium.
In addition, as a control, the same amount of bovine serum albumin (BSA) was administered via the tail vein in the same schedule to the obese AIM^−/− mice produced by giving HFD for 20 weeks or more. Then, the body weight of the mice after being administered was measured, and the visceral white adipose tissue was collected and its weight was measured.
FIG. 22A and FIG. 22B show the results of observing adipose tissue sections stained with hematoxylin and eosin (HE) under a microscope.

[2] = Stability of AIM functions (drying and redissolution, acidic condition); type: physicochemical
[3] = system: AIM-/- macrophages; conditions: AIM-/- macrophages loaded with recombinant AIM molecules; Document 1; cited from earlier work
[4] = target: T1, FAS (Mus musculus, UniProt P19096); experiment: FAS enzyme activity in lysates of loaded 3T3-L1 cells (malonyl-CoA consumption); type: cell-based; conditions: mouse AIM 5 μg/mL
T1 construct: cell lysates were prepared, and the enzyme activity of FAS was measured; endogenous in cells; host or cells: 3T3-L1 cells (differentiating or differentiated)
Protocol: Whether AIM affected an enzyme activity of FAS or not was examined.
In addition, as a schedule (f) similar to the above-mentioned schedule (e), AIM was loaded for 4 days (day 8 to day 12) after the 3T3-L1 cells differentiated, subsequently the cells were collected on the 10th day (day 12) after the initiation of the differentiation induction, cell lysates were prepared, and the enzyme activity of FAS was measured. The enzyme activity of FAS was measured based on a consumption amount of malonyl-CoA.
In addition, using a FAS inhibitor (C75) in place of AIM, the FAS inhibitor at a concentration of 25 μM was loaded according to the schedules (d) and (f), and as was the case with the above-mentioned AIM, the cells were collected on the 2nd day (day 4: schedule (d)) and 10th day (day 12: schedule (f)) after the initiation of the differentiation induction, and the enzyme activity of FAS was measured.
Further, for comparison, the cells cultured without loading AIM in the above-mentioned schedule (a) were also collected at times of the 2nd day (day 4) and 10th day (day 12) after the initiation of the differentiation induction, and the enzyme activity of FAS was measured.
FIG. 11B and FIG. 11C illustrate the results of measuring the FAS enzyme activity (Fatty acid synthase activity) (nmol NADPH/min/mg protein). FIG. 11B illustrates the results obtained on the 2nd day (day 4) after the initiation of the differentiation induction in the case of loading no AIM according to the schedule (a) (None), the case of loading AIM according to the schedule (d) (AIM (5 μg/mL)), and the case of loading the FAS inhibitor according to the schedule (d) (C75 (25 μM)). FIG. 11C illustrates the results obtained on the 10th day (day 12) after the initiation of the differentiation induction in the case of loading no AIM according to the schedule (a) (None), the case of loading AIM according to the schedule (f) (AIM (5 μg/mL)), and the case of loading the FAS inhibitor according to the schedule (f) (C75 (25 μM)).

[5] = system: adipocytes in the adipose tissue of AIM-/- mice; experiment: Endocytosis of injected rAIM into adipose tissue of AIM-/- mice (histology); type: in vivo, mouse; conditions: 3 hours
Protocol: Further, mouse rAIM was directly injected into epididymal adipose tissue in obese AIM^−/− mice, and the adipose tissue was histologically analyzed. That is, total 100 μg of rAIM was directly injected into several sites of the epididymal adipose tissue. At 3 hours after the injection, tissue sections from the epididymal adipose tissue were made, and the tissue sections were stained with the anti-AIM antibody and the anti-macrophage antibody.
In addition, rAIM was systemically administered by intravenous injection to AIM^−/− mice, and subsequently adipose tissues were histologically analyzed. That is, 200 μg of rAIM was systemically administered by the intravenous injection to the AIM^−/− mice. At 3 hours after the injection, tissue sections were made from the epididymal adipose tissue, and the tissue sections were stained with the anti-AIM antibody and the anti-macrophage antibody.

[6] = AIM iv versus albumin, HE-stained sections
[7] = mouse AIM 1 μg per 1 g body weight, tail vein, twice a week for 4 weeks, versus BSA

T1 sequence (P19096 whole entry): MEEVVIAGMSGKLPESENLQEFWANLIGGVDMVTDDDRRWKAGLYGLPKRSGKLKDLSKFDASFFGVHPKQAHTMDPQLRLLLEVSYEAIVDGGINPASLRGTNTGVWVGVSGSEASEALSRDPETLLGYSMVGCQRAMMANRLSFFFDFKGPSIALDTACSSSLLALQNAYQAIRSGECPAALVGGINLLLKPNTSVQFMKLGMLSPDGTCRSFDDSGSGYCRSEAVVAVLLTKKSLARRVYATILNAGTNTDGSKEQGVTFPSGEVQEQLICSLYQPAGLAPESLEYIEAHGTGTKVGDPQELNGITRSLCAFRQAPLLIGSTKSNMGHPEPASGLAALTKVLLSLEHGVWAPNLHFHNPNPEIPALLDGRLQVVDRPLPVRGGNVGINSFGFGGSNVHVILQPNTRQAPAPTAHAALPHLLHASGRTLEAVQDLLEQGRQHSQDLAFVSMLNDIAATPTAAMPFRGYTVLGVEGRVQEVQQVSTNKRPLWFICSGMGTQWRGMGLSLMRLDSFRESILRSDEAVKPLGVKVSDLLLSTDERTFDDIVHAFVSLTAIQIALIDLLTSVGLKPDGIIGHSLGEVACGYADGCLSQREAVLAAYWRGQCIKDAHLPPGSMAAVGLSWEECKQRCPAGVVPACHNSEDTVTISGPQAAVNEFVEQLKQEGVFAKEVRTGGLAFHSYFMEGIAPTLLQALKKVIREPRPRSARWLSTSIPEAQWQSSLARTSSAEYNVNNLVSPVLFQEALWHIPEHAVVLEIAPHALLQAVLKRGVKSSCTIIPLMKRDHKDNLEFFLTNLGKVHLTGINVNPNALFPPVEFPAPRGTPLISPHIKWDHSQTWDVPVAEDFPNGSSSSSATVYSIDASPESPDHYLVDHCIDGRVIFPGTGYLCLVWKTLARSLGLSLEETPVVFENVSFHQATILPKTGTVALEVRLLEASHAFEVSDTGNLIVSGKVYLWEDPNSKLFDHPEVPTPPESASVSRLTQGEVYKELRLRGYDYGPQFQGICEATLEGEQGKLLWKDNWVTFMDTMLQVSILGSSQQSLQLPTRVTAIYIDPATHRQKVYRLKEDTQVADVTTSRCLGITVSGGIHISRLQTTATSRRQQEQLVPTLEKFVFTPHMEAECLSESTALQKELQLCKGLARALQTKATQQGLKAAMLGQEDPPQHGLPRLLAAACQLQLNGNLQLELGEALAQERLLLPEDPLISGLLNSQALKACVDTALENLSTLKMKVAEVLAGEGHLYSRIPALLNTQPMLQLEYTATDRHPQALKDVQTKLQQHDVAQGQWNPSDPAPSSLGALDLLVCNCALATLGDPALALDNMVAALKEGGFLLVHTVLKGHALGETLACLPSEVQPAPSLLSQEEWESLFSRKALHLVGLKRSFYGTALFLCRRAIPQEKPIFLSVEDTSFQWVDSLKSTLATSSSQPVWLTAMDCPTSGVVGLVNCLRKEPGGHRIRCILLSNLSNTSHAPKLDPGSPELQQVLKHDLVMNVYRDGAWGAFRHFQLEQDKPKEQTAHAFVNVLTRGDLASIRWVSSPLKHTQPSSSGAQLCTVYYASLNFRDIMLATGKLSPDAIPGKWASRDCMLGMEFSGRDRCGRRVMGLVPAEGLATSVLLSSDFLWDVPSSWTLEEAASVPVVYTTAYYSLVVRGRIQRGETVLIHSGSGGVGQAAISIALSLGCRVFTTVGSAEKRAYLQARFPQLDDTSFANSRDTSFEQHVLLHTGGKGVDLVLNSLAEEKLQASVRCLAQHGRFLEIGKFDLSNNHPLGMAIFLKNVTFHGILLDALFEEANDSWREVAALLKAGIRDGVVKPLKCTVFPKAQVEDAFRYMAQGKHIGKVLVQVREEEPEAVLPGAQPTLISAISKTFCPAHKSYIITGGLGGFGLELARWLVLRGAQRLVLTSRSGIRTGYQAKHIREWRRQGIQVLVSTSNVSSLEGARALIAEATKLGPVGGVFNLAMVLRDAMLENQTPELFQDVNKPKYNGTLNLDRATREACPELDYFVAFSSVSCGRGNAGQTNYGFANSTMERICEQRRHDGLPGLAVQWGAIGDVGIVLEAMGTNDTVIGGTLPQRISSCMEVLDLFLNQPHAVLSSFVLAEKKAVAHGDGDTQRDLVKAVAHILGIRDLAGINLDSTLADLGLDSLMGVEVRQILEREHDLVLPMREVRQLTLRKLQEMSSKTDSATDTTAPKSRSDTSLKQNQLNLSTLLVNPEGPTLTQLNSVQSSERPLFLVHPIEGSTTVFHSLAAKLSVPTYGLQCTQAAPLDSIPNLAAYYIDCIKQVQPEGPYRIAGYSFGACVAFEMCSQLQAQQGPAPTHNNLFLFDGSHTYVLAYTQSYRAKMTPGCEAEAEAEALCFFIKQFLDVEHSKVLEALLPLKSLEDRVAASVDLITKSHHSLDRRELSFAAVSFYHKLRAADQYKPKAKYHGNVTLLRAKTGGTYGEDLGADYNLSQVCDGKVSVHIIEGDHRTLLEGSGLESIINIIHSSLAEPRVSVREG

| Molecule | accumulation of macrophages in the adipose tissues [1, 6] | size of adipocytes in the adipose tissues [1, 6] | amount of food intake ([1]; administration of AIM, iv) | histology of adipose tissues, observed locally (in a spotty pattern) ([1]; mouse AIM 1 μg per 1 g body weight, tail vein, twice a week for 4 weeks) | body weight [1, 7] | total weight of the adipose tissue [1, 7] | lipolysis in the adipose tissues of the obese mouse ([1]; systemic intravenous administration of purified AIM protein) | functions of AIM after drying and redissolution ([2]; drying such as lyophilization, redissolution) | functions of AIM under an acidic condition ([2]; pH of about 2 to 3) | resistance to the apoptosis [3] | enzyme activity of FAS ([4]; schedule (d): day 2 to day 4, cells collected day 4, compared with no AIM) | enzyme activity of FAS ([4]; schedule (f): day 8 to day 12, cells collected day 12, compared with no AIM) | staining of macrophages in the adipose tissues with the anti-AIM antibody ([5]; 200 μg rAIM intravenous injection) | signals from the endocytosed rAIM in the adipocytes in the adipose tissues ([5]; 200 μg rAIM intravenous injection, levels lower than after direct injection) | endocytosis of exogenous rAIM into adipocytes in the adipose tissue ([5]; total 100 μg mouse rAIM directly injected into epididymal adipose tissue of obese AIM-/- mice) |
| --- | --- | --- | --- | --- | --- | --- | --- | --- | --- | --- | --- | --- | --- | --- | --- |
| B1 | remarkable accumulation | remarkably reduced | No change | shrinkage and lysis of adipocytes | no significant difference | no significant difference | induced lipolysis | not lost | does not lose its functions | enhanced | remarkably reduced | remarkably reduced | – | – | – |
| B2 | – | – | – | – | – | – | – | – | – | – | – | – | also stained | detected | endocytosed into adipocytes |
